From patent publication US20050025777A1, “Particle-mediated delivery of antigens” (priority 1994, published 2005)
“And” between values parts separate entries of the source, which are not always exact repeats. Equal entries are not always repeated.

What was measured:
[1] = Induction of cytotoxic cellular response by HIV gp 120 peptide; conditions: in vivo
[2] = target: Human Alpha 1 Anti-Trypsin Protein (Homo sapiens, UniProt P01009); assay: Antibody responses to human alpha 1 anti-trypsin protein after immunization; format: in vivo, mice
Chain of Human Alpha 1 Anti-Trypsin Protein (P01009 25-418): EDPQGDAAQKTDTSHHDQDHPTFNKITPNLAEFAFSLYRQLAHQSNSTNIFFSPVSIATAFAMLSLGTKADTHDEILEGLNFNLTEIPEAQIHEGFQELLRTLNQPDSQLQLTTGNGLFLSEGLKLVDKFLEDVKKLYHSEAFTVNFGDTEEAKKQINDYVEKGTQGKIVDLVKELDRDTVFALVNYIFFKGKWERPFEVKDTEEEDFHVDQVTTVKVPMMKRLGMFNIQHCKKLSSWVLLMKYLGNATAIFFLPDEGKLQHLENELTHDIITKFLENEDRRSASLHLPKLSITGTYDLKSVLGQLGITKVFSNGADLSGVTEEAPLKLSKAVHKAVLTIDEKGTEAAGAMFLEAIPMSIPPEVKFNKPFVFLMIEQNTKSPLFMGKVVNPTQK

[3] = Accell (no adjuvant), prime + 1 boost
[4] = Accell (no adjuvant), prime only

Compound | regimen required to induce a cytotoxic cellular response [1] | number with detectable antibody/total number tested [2, 3] | reciprocal antibody titers [2, 3] | number with detectable antibody/total number tested [2, 4] | reciprocal antibody titers [2, 4] | number with detectable antibody/total number tested ([2]; injection with Freund's adjuvant, prime + 1 boost) | number with detectable antibody/total number tested ([2]; injection with Freund's adjuvant, prime only)
CC[C@H](C)[C@H](NC(=O)[C@@H](NC(=O)[C@@H](NC(=O)[C@H](Cc1ccccc1)NC(=O)[C@H](C)NC(=O)[C@H](CCCNC(=N)N)NC(=O)CNC(=O)[C@@H]1CCCN1C(=O)CNC(=O)[C@H](CCCNC(=N)N)NC(=O)[C@H](CCC(N)=O)NC(=O)[C@@H](NC(=O)[C@@H](N)CCCNC(=N)N)[C@@H](C)CC)C(C)C)[C@@H](C)O)C(=O)NCC(=O)N[C@@H](CCCCN)C(=O)O [HIV gp 120] | a single dose, i.e. the prime, is all that is required |  |  |  |  |  | 
Human Alpha 1 Anti-Trypsin Protein: Human Alpha 1 Anti-Trypsin Protein used as immunogen |  | 4/4 | 9500 and 6500 and 5500 | 4/4 | 350 and 375 and 210 and 250 | 4/4 | 4/4
